Reference: US20110135634A1, “METHODS OF INHIBITING INFECTION BY DIVERSE SUBTYPES OF DRUG-RESISTANT HIV-1” (priority 2007, published 2011)
Several values for one entry are separate records, joined by “and”; a condition that tells them apart may be missing. Identical values can stand only once. Like-named read-outs stand apart in the source and are kept apart here.

Columns and labels:
[1] = target: T1, CCR5 on CEM.NKR-CCR5 cells (Homo sapiens, UniProt P51681); assay: Competition binding: inhibition of 3H-UK-427,857 binding; settings: read-out: EC50, inhibition of 3H-UK-427,857 binding; 2 nM 3H-UK-427,857, CEM.NKR-CCR5 cells
T1 construct: host or cells: CEM.NKR-CCR5 (transduced human T cell leukemia line)
T1 sequence (P51681 whole entry): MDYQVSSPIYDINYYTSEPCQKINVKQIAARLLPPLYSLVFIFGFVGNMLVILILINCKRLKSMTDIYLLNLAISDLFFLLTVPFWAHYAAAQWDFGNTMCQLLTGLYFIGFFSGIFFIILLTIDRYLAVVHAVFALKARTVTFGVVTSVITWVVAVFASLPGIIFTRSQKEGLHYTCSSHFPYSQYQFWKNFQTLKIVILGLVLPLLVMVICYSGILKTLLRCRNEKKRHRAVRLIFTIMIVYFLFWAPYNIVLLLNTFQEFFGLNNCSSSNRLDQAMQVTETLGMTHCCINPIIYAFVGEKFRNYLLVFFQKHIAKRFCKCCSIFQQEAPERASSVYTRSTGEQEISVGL
Text: The cells were washed in PBSA and lysed with 0.5N HCl prior to scintillation counting using a Wallac 1410 instrument.

[2] = system: primary R5 HIV-1 isolates; assay: Whole virus replication (neutralization) assay; format: cell-based; settings: a variety of primary R5 strains (FIG. 1)
Experimental: Humanized PRO140 is potently antiviral. […] The data reflect the median values from 8 or more independent assays. The genetic subtypes of the viruses are indicated in parentheses.
Stimulated PBMCs are seeded into wells of 96-well flat bottom plates at a density of 1.4×10^5 cells/well. Virus is diluted to 2,000 TCID50/ml and mixed with serial 0.5 log10 dilutions of compound for 1 h at 37° C. prior to addition to the cell plates. The final amount of virus added per well is 100 TCID50. The final DMSO concentration in the assay is always 0.5% whenever small molecule inhibitors are being tested. Plates are incubated at 37° C. for 5 days, at which time an aliquot of supernatant is removed for p24 antigen ELISA.
The percent inhibition is derived as follows [1−(p24 levels in the presence of drug/p24 levels in the absence of drug)]×100.

[3] = system: HIV-1 (CCR5-tropic virus); format: in vivo; settings: for Mean log10 HIV RNA change: Day 10 post-treatment
Text: The efficacy data collected during the study were changes in viral load and CD4 counts over time. The safety data collected during the study were serious adverse events (SAEs)/adverse events (AEs) and changes in laboratory parameters (hematology, chemistry), physical exam, viral tropism and ECGs over time.
All patients were screened prior to the study for the presence of virus that utilizes only CCR5 as the entry coreceptor, i.e., CCR5-tropic virus.
The primary efficacy endpoint was the reduction in plasma HIV RNA level as measured by the Roche Amplicor™ Assay. The primary efficacy endpoint is the maximum change from baseline in viral load, defined as HIV-1 copies/ml, as measured by the Roche Amplicor™ Assay.

[4] = target: CCR5 (Homo sapiens, UniProt P51681); settings: cited from earlier work
Sequence of CCR5 (P51681 whole entry): as above

B1: PRO 140: humanized IgG4,κ anti-CCR5 mAb being developed for HIV-1 therapy (antibody, chains of the INN, looked up, V domains shown)
VH: EVQLVESGGGLVKPGGSLRLSCAASGYTFSNYWIGWVRQAPGKGLEWIGDIYPGGNYIRNNEKFKDKTTLSADTSKNTAYLQMNSLKTEDTAVYYCGSSFGSNYVFAWFTYWGQGTLVTVSS
VL: DIVMTQSPLSLPVTPGEPASISCRSSQRLLSSYGHTYLHWYLQKPGQSPQLLIYEVSNRFSGVPDRFSGSGSGTDFTLKISRVEAEDVGVYYCSQSTHVPLTFGQGTKVEIK
- EC50 [1]: 14 nM
- IC90 [2]: 3 to 4 µg/mL
- individual reductions of viral load ([3]; 2.0 mg/kg and 5.0 mg/kg dose levels): up to 2.5 log10 and ≤ 99.7%
- AUC viral load ([3]; 5 mg/kg): significantly decreased
- Maximum decrease of viral load at any time ([3]; 5 mg/kg): −1.8 log
- Patients with <400 copies/mL (anytime) ([3]; 5 mg/kg): 4/10
- Patients with >1 log decrease (anytime) ([3]; 5 mg/kg): 10/10
- time of return of viral load to baseline ([3]; 5.0 mg/kg cohort): approximately 30 days
- time to suppression of mean viral load by 1.0 log10 (90%) ([3]; 5.0 mg/kg cohort): within four days
- time viral load persisted at or below the 1.0 log10 level of reduction ([3]; 5.0 mg/kg cohort): two to three weeks
- mean increase in CD4+ lymphocytes ([3]; 5 mg/kg, day 8): 129 cells/μL
- Viral load decrease ([3]; 5 mg/kg, day 22): −0.73
- Mean log10 HIV RNA change ([3]; 0.5 mg/kg): −0.37 log10
- Mean log10 HIV RNA change ([3]; 2.0 mg/kg): −1.04 log10
- Mean log10 HIV RNA change ([3]; 5.0 mg/kg): −1.70 log10
- response rate (percentage of patients with a ≧1 log10 decrease in HIV RNA at any time) ([3]; highest dose cohort): 100%
- Block Natural Activity of CCR5 ([4]; Table 2 summary): No
- Development of Resistance In Vitro ([4]; Table 2 summary): None at 40 weeks
- Viral Cross-Resistance ([4]; Table 2 summary): Limited
- tolerability [4]: No Toxicity
